Data on three molecules can be found in US20030003461, “Truncation selex method” (Gilead Sciences, Inc., published 2003).

For data set [1], the target named is MS2 coat protein (MS2 CP) (bacteriophage MS2, UniProt P03612 P03612:2-130, V75E;A81G). The experiment in a line: filter; only marginally worse than full isolate. The note with it: chain copies: 2 (dimer, stated); hairpin.
For data set [2], the target named is T1, VEGF (Homo sapiens, UniProt P15692-4 P15692-4:27-191). The data set can be described thus: filter; phenotype 5: non-binding with or without 3' fixed sequence. The note with it: tags: recombinant human, R&D Systems; chain copies: 2.
T1 sequence (P15692 other isoform, or with tags, fused parts or gaps): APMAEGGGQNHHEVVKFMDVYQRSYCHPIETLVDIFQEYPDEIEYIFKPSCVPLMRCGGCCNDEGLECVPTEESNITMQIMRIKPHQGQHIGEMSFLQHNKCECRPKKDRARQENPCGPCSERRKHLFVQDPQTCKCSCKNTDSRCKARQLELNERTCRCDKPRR
Data set [3] concerns the target T1, VEGF. The data set can be described thus: filter; phenotype 4: unaffected (Table 10 clone 34,36a: phenotype 1). The conditions noted are these: tags: recombinant human, R&D Systems; chain copies: 2.

On to GGCACGCGUAUUCACUGAGCAUCAGCCAGACUGUGU (ssRNA) [rffG minus fixed sequences], for which the binding result in data set [1] is on record as “binds”.
As to GGGAGGAAGAAUUGGAAACAUUGCUCGUCAGACGACUCGCCCGA (ssRNA, 2'-F pyrimidines) [T1-11], in the data set with VEGF [2], the binding result is “no binding”.

B1: VEGF hyb 10,16b (ssRNA)
RNA: GGGAGGACGAUGCGGUGAAACGGAAGAAUUGGAAACAUUGCUCGUCAGACGACUCGCCCGA
modifications: 2'-F pyrimidines
B1: the binding result with VEGF [3] is recorded as “binds”.
